From publication doi:10.1101/2020.05.02.073981

T1: His6-MmfR (Streptomyces coelicolor A3(2)) (UniProt Q7APH7)
T1 sequence: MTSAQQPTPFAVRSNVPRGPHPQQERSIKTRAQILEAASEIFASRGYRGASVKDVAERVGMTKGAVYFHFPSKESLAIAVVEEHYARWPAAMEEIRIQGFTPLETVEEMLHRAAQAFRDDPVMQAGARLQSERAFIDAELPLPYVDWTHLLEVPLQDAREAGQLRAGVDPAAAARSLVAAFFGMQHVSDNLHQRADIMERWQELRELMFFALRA

T2: MmfR Y85F Y85F (Streptomyces coelicolor A3(2)) (UniProt Q7APH7)
T2 sequence: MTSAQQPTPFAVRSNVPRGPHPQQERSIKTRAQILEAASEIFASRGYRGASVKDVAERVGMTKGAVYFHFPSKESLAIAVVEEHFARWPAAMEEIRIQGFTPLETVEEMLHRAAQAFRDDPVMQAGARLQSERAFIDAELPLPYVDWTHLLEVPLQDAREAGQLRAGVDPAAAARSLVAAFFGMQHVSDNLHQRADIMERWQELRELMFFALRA

T3: MmfR Q130E Q130E (Streptomyces coelicolor A3(2)) (UniProt Q7APH7)
T3 sequence: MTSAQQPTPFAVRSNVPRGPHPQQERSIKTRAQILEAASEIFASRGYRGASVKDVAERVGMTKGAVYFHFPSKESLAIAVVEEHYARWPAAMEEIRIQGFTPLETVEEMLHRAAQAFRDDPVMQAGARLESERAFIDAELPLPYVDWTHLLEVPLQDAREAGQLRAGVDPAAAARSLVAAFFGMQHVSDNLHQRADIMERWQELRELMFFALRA

T4: MmfR Y144F Y144F (Streptomyces coelicolor A3(2)) (UniProt Q7APH7)
T4 sequence: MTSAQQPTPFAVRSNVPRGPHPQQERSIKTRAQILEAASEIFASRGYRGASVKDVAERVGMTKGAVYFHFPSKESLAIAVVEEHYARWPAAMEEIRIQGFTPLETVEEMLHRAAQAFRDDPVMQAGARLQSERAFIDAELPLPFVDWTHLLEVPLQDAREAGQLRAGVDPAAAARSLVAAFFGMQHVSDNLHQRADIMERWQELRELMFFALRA

T5: His6-MmfR (Streptomyces coelicolor A3(2), UniProt Q7APH7 1-214)
T5 sequence: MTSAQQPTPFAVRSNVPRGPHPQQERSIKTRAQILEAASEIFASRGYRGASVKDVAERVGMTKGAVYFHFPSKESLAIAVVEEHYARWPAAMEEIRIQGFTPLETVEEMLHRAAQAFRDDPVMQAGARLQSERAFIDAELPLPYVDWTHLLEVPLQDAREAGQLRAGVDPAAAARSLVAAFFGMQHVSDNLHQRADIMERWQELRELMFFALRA


Assays:
Experiment in all cases: EMSA
[1] = molecular target: T1, His6-MmfR (Streptomyces coelicolor A3(2))
[2] = molecular target: T2, MmfR Y85F Y85F (Streptomyces coelicolor A3(2))
[3] = molecular target: T3, MmfR Q130E Q130E (Streptomyces coelicolor A3(2))
[4] = molecular target: T4, MmfR Y144F Y144F (Streptomyces coelicolor A3(2))
[5] = molecular target: T5, His6-MmfR

| Molecule | binding [1] | binding result [5] | other results |
| --- | --- | --- | --- |
| GGACCACCGGCTGGCTTGCCGCGCTGCAAGACAGCCGGGATCGGTAAGCTGACCGAGAGAAATATACCTGCGGGAAGGTATTATGCAATGGGTTTCCGTG (double strand) [mmfL-mmfR internal fragment, 100 bp] | binds | – | – |
| GGCGCCTCACAGTGTCAAACCTTCCCGAAGGTTTTTTATGACTCGTAACGGAGAGTTAAACCGGGGCTTACGAGAGCGGCGGGGCCTCGGTGTTTGGA (double strand) [mmyB-mmyY internal fragment, 98 bp] | binds | – | – |
| GGCGCCTCACAGTGTCAAACCTTCCCGAAGGTTTTTTATGACTCGTAACGGAGAGTTAAACCGGGGCTTACGAGAGCGGCGGGGCCTCGGTGTTTGGACCGCAACTCGGCGGGGCCCTGGTGCTGAGAACACCACGTCTGAGGCCCCTAGCAGAAGTTCGCTCTGGCAGCCTTCGCACGACCCTGCCGATACTCGCCAGCGATCCGAACCACTCGCCGAAGGAGTTCACC (double strand) [mmyB-mmyY intergenic region, 230 bp] | binds | – | – |
| GGCTGCCTTCCTTCGTGTGTGCGGGCCCTGCGGGCGCCATGCTGGTGCGACCCGGGTCGGCACGGAAACCCATTGCATAATACCTTCCCGCAGGTATATTTCTCTCGGTCAGCTTACCGATCCCGGCTGTCTTGCAGCGCGGCAAGCCAGCCGGTGGTCCCGTACGAGGACACACCGGGAGATGTAGCGCCCCT (double strand) [mmfL-mmfR intergenic region, 194 bp] | binds | – | binding [2]: binds; binding [3]: binds; binding [4]: binds |
| MARE1 hairpin (structured_DNA) DNA: GCAATATACCTGCGGGAAGGTATTATGCGAGGCATAATACCTTCCCGCAGGTATATTGC | – | binds | – |
| MARE2 hairpin (structured_DNA) DNA: GCAAAAAACCTTCGGGAAGGTTTGACGCGAGGCGTCAAACCTTCCCGAAGGTTTTTTGC | – | binds | – |
